T1: human SPNS2 W259A mutant (human, UniProt Q8IVW8 1-549)
T1 sequence: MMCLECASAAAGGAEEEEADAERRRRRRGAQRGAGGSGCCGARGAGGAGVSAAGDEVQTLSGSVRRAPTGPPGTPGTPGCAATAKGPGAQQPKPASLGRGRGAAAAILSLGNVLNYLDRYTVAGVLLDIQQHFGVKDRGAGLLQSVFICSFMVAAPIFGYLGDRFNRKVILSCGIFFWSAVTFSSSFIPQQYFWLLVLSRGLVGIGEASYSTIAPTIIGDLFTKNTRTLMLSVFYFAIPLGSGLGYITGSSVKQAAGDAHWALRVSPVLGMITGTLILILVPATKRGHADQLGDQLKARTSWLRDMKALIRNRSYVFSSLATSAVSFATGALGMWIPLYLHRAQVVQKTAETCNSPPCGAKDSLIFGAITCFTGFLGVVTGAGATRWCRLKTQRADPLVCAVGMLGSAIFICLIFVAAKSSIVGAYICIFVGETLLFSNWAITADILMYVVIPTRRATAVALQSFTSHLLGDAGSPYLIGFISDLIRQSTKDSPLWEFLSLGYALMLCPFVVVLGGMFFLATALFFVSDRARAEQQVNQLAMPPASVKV

T2: human SPNS2 (human, UniProt Q8IVW8 1-549)
T2 sequence: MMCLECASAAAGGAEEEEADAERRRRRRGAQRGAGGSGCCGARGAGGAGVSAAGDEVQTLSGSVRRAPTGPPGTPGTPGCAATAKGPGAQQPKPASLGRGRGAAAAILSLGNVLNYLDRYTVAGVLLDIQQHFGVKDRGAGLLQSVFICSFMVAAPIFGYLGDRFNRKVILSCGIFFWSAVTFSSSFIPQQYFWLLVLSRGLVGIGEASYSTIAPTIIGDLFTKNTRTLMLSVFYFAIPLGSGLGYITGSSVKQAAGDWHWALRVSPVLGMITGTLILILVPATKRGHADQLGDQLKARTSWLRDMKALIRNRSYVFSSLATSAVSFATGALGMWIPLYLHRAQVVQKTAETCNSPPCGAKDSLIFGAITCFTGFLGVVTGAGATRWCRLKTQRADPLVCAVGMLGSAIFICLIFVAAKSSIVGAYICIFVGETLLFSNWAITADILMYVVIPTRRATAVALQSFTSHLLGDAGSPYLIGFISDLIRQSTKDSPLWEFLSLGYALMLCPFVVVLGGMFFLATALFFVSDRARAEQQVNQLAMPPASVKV

T3: human SPNS2 K136A mutant (human, UniProt Q8IVW8 1-549)
T3 sequence: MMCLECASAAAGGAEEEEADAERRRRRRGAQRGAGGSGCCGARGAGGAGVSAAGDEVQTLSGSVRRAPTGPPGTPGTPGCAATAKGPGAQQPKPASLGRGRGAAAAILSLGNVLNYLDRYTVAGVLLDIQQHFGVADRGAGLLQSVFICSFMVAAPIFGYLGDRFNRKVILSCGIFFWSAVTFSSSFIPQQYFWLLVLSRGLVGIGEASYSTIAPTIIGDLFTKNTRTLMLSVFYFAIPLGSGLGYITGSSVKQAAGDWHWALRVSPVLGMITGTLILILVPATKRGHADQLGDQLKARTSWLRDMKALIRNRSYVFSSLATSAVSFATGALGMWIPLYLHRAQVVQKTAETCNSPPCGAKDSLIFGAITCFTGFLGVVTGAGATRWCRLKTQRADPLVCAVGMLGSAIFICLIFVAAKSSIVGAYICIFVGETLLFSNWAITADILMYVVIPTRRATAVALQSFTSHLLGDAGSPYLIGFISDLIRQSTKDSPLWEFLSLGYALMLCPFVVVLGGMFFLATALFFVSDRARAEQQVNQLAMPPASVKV

T4: human SPNS2 F133A mutant (human, UniProt Q8IVW8 1-549)
T4 sequence: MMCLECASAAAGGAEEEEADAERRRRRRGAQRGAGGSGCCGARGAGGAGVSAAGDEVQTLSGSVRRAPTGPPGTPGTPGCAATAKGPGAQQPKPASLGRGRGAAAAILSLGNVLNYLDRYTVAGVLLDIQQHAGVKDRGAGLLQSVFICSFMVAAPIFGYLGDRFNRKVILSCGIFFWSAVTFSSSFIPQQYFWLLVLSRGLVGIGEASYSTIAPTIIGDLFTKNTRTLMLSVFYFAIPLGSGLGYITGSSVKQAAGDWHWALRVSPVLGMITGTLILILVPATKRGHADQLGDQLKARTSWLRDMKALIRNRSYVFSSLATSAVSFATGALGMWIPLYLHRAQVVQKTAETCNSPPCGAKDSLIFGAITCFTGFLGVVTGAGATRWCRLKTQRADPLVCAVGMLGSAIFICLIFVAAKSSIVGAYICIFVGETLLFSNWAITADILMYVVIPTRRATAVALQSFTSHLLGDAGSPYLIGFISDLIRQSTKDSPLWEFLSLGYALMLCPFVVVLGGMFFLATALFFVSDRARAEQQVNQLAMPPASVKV


Columns and labels:
[1] = target: T1, human SPNS2 W259A mutant; test: flow cytometry
[2] = target: T2, human SPNS2; test: cell-based or functional assay
[3] = target: T3, human SPNS2 K136A mutant; test: flow cytometry
[4] = target: T4, human SPNS2 F133A mutant; test: flow cytometry

Binder | binding ratio vs native type [1] | pIC50, S1P transport inhibition (S1PR3 Ca2+ FLIPR bioassay) [2] | binding ratio vs native type [3] | binding ratio vs native type [4]
83-1110B (antibody, IgG2b, V domains shown) VH: EVQLQQSGPEFVRPGTSVKFSCKVSGGSITSYFIHFVKQRPGQGLEWIGKIDPEDDSTKYGEKFKNKATLTADTSSNTAFLKLSSLTSEDTAIYFCTTLTGLDYWGQGVMVTVSS VL: DIQMTQSPPVLSAAVGDRVTLSCKASRSLNKNLDWYQQKHGETPKLLIYHTHNLQTGIPSRFSGSGSDTDYTLTISSLQTEDVATYYCYQYHSGWTFGGGTRLELRR | < 0.5 ratio | 7.6 pIC50 (M) |  | 
50-0704C (antibody, IgG2b, V domains shown) VH: EVQLVGSGGGLVQPGRSMKLSCEASGFTFSNHYMAWVRQAPTKGLEWVATISTGGGNTYYRDSVKGRFTISRDNARSTLSLQMDSLRSEDTATYYCARQDYSNYMGGFAYWGQGTLVTVSS VL: QFVLTQPNSVSTNLGSTVKLSCTRSIGNIGNNYVNWYKQYEGRSPTTMIYRDDERPDGVPDRFSGSIDRSSNSALLTINSVQTEDEADYFCQSFSSGIFIFGGGTKLTVL | < 0.5 ratio | 7.2 pIC50 (M) | < 0.5 ratio | < 0.5 ratio
89-1207D (antibody, IgG2b, V domains shown) VH: EVQLVGSGGGLVQPGRSMKLSCEASGFTFSNHYMAWVRQAPTKGLEWVATISTGGGNTYYRDSVKGRFTISRDNARSILSLQMDSLRSEDTATYYCARQDYSNYMGGFAYWGQGTLVTVSS VL: QFVLTQPNSVSTNLGSTVKLSCTRSIGNIGNNYVNWYKQYEGRSPTTMIYRDDERPDGVPDRFSGSIDRSSNSALLTINNVQTEDEADYFCQSFSSGMFIFGGGTKLTVL |  | 7.2 pIC50 (M) | < 0.5 ratio | 
18-0211B (antibody, IgG2b, V domains shown) VH: AVQLVGSGGGLVQPGRSMKLSCEASGFTFSNHYMAWVRQAPTRGLEWVATISTGGGNTYYRDSVKGRFTISRDNTRSTLSLQMDSLRSEDTATYYCTRQDYTNYMGGFAYWGQGTLVTVSS VL: QFVLTQPNSVSTNLGSTVKLSCTRSIGNIGNNYVNWYKQYEGRSPTTLIYRDDERPDGVPDRFSGSIDRSSNSALLTINSVQTEDGADYFCQSFSSGIFIFGGGTTLTVL |  | 7.6 pIC50 (M) | < 0.5 ratio | 
64-0807A (antibody, IgG2b, V domains shown) VH: EVQVVESGGGLVQPGRSMKLSCAALGFTFRDYYMAWVRQTPTKGLEWVAAISTGGGNTYYRDSVKGRFTISRDNAKSTLYLQMDSLRSDDTATYYCARNPYGNYFDYWGQGVMVTVSS VL: QFVLSQPNSVSTNLGSTVKLSCKRSTGNIGSNYVHWYQRHEGRSPTTLIYRDDKRPNGVPDRFSGSIDRSSNSALLTINNVQTEDEADYFCQSYSGGMYLFGGGTKLTVL | < 0.5 ratio | 7.4 pIC50 (M) | < 0.5 ratio | 
84-1111F (antibody, IgG2b, V domains shown) VH: EVQVVESGGGLVQPGRSMKLSCAALGFTFRDYYMAWVRQTPTKGLEWVAAISTGGGNTYYRDSVKGRFTISRDNAKSTLYLKMDSLRSDDTATYYCARNPYGNYFDYWGQGVMVTVSS VL: QFVLSQPNSVSTNLGSTVKLSCKRSTGNIGSNYVHWYQRHEGRSPTTMIYRDDKRPNGVPDRFSGSIDRSSNSALLTINNVQTEDEADYFCQSYSGGMYLFGGGTTLTVL |  | 7.7 pIC50 (M) |  | 
80-1104A (antibody, IgG2b, V domains shown) VH: EVQLVETGGGLVQPGSSLKLSCSTSGFTFSETWMSWVRQAPGKGLEWVGLIKDKNSNYEANYAESVKGRFTISRDDSKRRVYLQMYTLRDQDTATYYCTSHEDFYYYSSYYFDYWGQGVMVTVSS VL: DIVLTQSPATLSVTPGESVSLSCRASQGISTSIHWYQQKSNESPRLLIKYASQSMSGIPSRFSGSGSGTDFTLRINRVESEDFSVYYCQQSYNLPLTFGSGTKLEIKR |  | 7.5 pIC50 (M) | < 0.5 ratio | 
96-1403F (antibody, IgG2b, V domains shown) VH: EVQLVETGGGLVRPGSSLKLSCATSGFTFSDTWMSWVRQAPGKGLEWVALIKDKNSNSEANYAESIKGRFTISRDDSKSRVYLQMNTLRDQDTATYYCTRHEDFYYYSGYYFDYWGQGVMVTVSS VL: DIVLTQSPPTLSVTPGESVSLSCRASQGISTSIHWYQQRSNESPRLLIKYASQSIAGIPSRFSGSGSGTDFILSINRVESEDFSVYYCQQTYSLPLTFGPGTKLEVKR |  | 6.9 pIC50 (M) | < 0.5 ratio | < 0.5 ratio
93-1310F (antibody, IgG2b, V domains shown) VH: EVQLVETGGGLVQPGSSLKLSCATSGFTFSDTWMSWVRQAPGKGLEWVALIKDKNSNYEANYAESVKGRFTISRDDSKRRVYLQMFTLRDQDTATYYCTSHEDFYYYSSYYFDYWGHGVMVTVSS VL: DIVLTQSPATLSVTPGESVSLSCRASQGISTSIHWYQQKSNGSPRLLIKYASQSISGIPSRFSGSGSGTDFTLRINRVESEDFSVYYCQQTYSLPLTFGSGTRLEIKR |  | 7.6 pIC50 (M) | < 0.5 ratio | < 0.5 ratio
37-0511F (antibody, IgG2b, V domains shown) VH: EVHLQQSGAALVRPRASVKLSCKVSGDSISRYYVHFVKQRPGQGLEWIGRIDPEDDTTKYSEKFKNRATLTADASSDTASLILSGLTSDDTATYFCSTLTGLDYWGQGVMVTVSS VL: DIQMTQSPPVLSTSVGDRVTLRCKPSQNVHSKLDWYQQKHGEAPKLLIYYTHNLQTGIPSRFSGSGSGTDYTLTISSLQPEDVATYYCFQYYSGWTFGGGTKLEMKR | < 0.5 ratio | 7.3 pIC50 (M) |  | 
94-1311E (antibody, V domains shown) VH: EVQLQQSGAGLVRPRTSVRLSCKISGDSITAYYVHFVKQRPGQGLEWIGRIDPEDDSTKYSEKFKNKATLTADVSSSTAYLILSSLTSDDSATYFCSTLTGLDYWGQGVMVTVSS VL: DIQMTQSPPVLSASVGDRVTLSCKASQSVHNKLDWYQQKHGEAPKLLIYYTHNLQTGIPSRFSGSGSGSDYTLTISSLRAEDVATYYCFQYYSGWTFGGGTKLEMKR | < 0.5 ratio | 7.8 pIC50 (M) |  | 
53-0707E (antibody, IgG2b, V domains shown) VH: EVQLQQSGAELVRPRTSVKLSCKVSGDSITRYYVHFVKQRPGQGLEWIGRIDPEDDTTKYSEKFKKKATLTADASSNTAYLIFSGLTSEDTATYFCSTLTGLDYWGQGVMVTVSS VL: DIQMTQSPPVLSTSVGDRVTLRCKASQNVHSKLDWYQQKHGEAPKLLIYYTHNLQTGIPSRFSGSGSGTDYTLTISSLQPEDVATYYCFQYYSGWTFGGGTKLEMKR | < 0.5 ratio | 7.1 pIC50 (M) |  | 

Reference: patent US20210147523A1 (TEIJIN PHARMA, published 2021)
